Measurements from patent US20190330367A1.

Experiments:
[1] = target: human PSMA, full-length (endogenous on LNCaP and CW22Rv1 cells, or stably overexpressed in HEK293T/17 cells) (human) (UniProt Q04609); experiment: flow cytometry on live LNCaP cells, mAb 5 µg/mL, Alexa Fluor 647 secondary antibody; number printed beside the open (LNCaP) histogram
[2] = target: Avi-PSMA, extracellular part of human PSMA comprising an N-terminal Avi-tag (human) (UniProt Q04609); experiment: native ELISA, biotinylated Avi-PSMA on streptavidin plate, mAb titrated
[3] = target: human PSMA, full-length (endogenous on LNCaP and CW22Rv1 cells, or stably overexpressed in HEK293T/17 cells) (human) (UniProt Q04609); experiment: flow cytometry (summary sentence; differs from […] in Table 2)
[4] = target: Avi-PSMA, extracellular part of human PSMA comprising an N-terminal Avi-tag (human) (UniProt Q04609); experiment: direct ELISA on biotinylated Avi-PSMA held on streptavidin-coated plates, HRP secondary antibody, chemiluminescence, normalised binding (%)
[5] = target: rhPSMA, extracellular part of human PSMA (residues 44-750) (human) (UniProt Q04609); experiment: SPR (BIAcore 2000), mAb captured by anti-mouse IgG, rhPSMA as analyte, Langmuir 1:1 fit
[6] = target: human PSMA, full-length (endogenous on LNCaP and CW22Rv1 cells, or stably overexpressed in HEK293T/17 cells) (human) (UniProt Q04609); experiment: flow cytometry titration on live LNCaP cells, Alexa Fluor 647 secondary antibody, normalised binding (%)
[7] = target: human PSMA, full-length (endogenous on LNCaP and CW22Rv1 cells, or stably overexpressed in HEK293T/17 cells) (human) (UniProt Q04609); experiment: flow cytometry titration on live LNCaP cells

| Substance | median fluorescence (Alexa Fluor 647) [1] | Kd [2] | Kd [3] | EC50 (read off the curve) [4] | Kd [5] | EC50 (read off the curve) [6] | Kd [7] | koff [5] | kon [5] |
| --- | --- | --- | --- | --- | --- | --- | --- | --- | --- |
| 5D3 mAb (antibody) | 10700 | 0.14 nM | 1.2 nM | 0.1 to 0.2 nM | 1.08 nM |  |  |  |  |
| J591 mAb (antibody) | 10600 | 1.12 nM |  | 0.9 nM | 1.21 nM | 10 nM | 15.2 nM | 0.000123 s⁻¹ | 102000 M⁻¹ s⁻¹ |
